Patent US20040223972A1 (FUNCTIONAL GENETICS, published 2004)

Molecular target: biotinylated peptide Bio-…

B1: purified TSG101 protein that contains only the UEV domain, Q99816 1-145 (protein)
chain: MAVSESQLKKMVSKYKYRDLTVRETVNVITLYKDLKPVLDSYVFNDGSSRELMNLTGTIPVPYRGNTYNIPICLWLLDTYPYNPPICFVKPTSSMTIKTGKHVDANGKIYLPYLHEWKHPQSDLLGLIQVMIVVFGDEPPVFSRP
Kd: 2000 nM
